From PMC2734569, “Functional mapping of the fission yeast DNA polymerase δ B-subunit Cdc1 by site-directed and random pentapeptide insertion mutagenesis” (BMC Molecular Biology, 2009)
Positions count from the first letter of the chain named.

Tests used:
Assay in all cases: two-hybrid; LexA-Cdc1 bait (pBTM116 or pBTM116BN) with Gal4-Pol3 prey and co-expressed c-myc-tagged Cdc27 (pAA-Cdc27) in S. cerevisiae CTY10-5d; ONPG liquid culture beta-galactosidase assay, mean of triplicates, as percent of wild-type Cdc1
Details in all cases: partners not purified
[1] = molecular target: T1, Cdc1-E1 (Schizosaccharomyces pombe, UniProt P87324 1-462, Ser-GlyValProGlnSer-Asp)
T1 construct: Cdc1, S. pombe, with a pentapeptide inserted after residue 66; source: yeast two-hybrid fusion, in S. cerevisiae CTY10-5d
T1 sequence (looked up): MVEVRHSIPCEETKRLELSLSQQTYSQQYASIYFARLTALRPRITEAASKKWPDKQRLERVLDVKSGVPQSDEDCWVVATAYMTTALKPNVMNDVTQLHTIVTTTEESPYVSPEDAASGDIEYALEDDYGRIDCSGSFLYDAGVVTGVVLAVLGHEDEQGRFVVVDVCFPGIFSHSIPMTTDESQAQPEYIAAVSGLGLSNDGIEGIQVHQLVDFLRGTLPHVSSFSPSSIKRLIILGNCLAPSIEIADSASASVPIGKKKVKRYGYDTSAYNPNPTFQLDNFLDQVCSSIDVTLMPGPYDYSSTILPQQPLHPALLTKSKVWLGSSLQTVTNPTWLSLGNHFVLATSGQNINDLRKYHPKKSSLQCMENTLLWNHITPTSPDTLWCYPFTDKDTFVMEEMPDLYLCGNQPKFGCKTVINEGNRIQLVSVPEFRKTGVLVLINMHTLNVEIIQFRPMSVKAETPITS

[2] = molecular target: T2, Cdc1-A2 (Schizosaccharomyces pombe, UniProt P87324 1-462, Gly293Ala)
T2 construct: Cdc1, S. pombe, point mutant; source: yeast two-hybrid fusion, in S. cerevisiae CTY10-5d
T2 sequence (looked up): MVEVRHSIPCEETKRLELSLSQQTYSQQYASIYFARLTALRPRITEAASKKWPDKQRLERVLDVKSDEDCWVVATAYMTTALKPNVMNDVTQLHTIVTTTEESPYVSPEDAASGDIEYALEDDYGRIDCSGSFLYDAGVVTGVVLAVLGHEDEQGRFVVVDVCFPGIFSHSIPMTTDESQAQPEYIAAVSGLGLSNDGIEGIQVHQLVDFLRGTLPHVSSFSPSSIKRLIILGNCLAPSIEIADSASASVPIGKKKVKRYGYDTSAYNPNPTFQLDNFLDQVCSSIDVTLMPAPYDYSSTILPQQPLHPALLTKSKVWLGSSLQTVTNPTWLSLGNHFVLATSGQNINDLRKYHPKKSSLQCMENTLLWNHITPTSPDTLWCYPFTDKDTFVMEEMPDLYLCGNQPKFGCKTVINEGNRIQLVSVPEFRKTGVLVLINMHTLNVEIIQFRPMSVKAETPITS

[3] = molecular target: T3, Cdc1-A5 (Schizosaccharomyces pombe, UniProt P87324 1-462, Asn328Ala)
T3 construct: Cdc1, S. pombe, point mutant; source: yeast two-hybrid fusion, in S. cerevisiae CTY10-5d
T3 sequence (looked up): T2 sequence (looked up) with A293G, N328A

[4] = molecular target: T4, Cdc1-A7 (Schizosaccharomyces pombe, UniProt P87324 1-462, Gly344Ala)
T4 construct: Cdc1, S. pombe, point mutant; source: yeast two-hybrid fusion, in S. cerevisiae CTY10-5d
T4 sequence (looked up): T2 sequence (looked up) with A293G, G344A

B1: Pol3 (fission yeast DNA polymerase delta catalytic subunit) (natural protein, Schizosaccharomyces pombe, UniProt P30316 1-1086, looked up)
chain: MTDRSSNEGVVLNKENYPFPRRNGSIHGEITDVKRRRLSERNGYGDKKGSSSKEKTSSFEDELAEYASQLDQDEIKSSKDQQWQRPALPAINPEKDDIYFQQIDSEEFTEGSVPSIRLFGVTDNGNSILVHVVGFLPYFYVKAPVGFRPEMLERFTQDLDATCNGGVIDHCIIEMKENLYGFQGNEKSPFIKIFTTNPRILSRARNVFERGEFNFEELFPVGVGVTTFESNTQYLLRFMIDCDVVGMNWIHLPASKYQFRYQNRVSNCQIEAWINYKDLISLPAEGQWSKMAPLRIMSFDIECAGRKGVFPDPSIDPVIQIASIVTQYGDSTPFVRNVFCVDTCSQIVGTQVYEFQNQAEMLSSWSKFVRDVDPDVLIGYNICNFDIPYLLDRAKSLRIHNFPLLGRIHNFFSVAKETTFSSKAYGTRESKTTSIPGRLQLDMLQVMQRDFKLRSYSLNAVCSQFLGEQKEDVHYSIITDLQNGTADSRRRLAIYCLKDAYLPQRLMDKLMCFVNYTEMARVTGVPFNFLLARGQQIKVISQLFRKALQHDLVVPNIRVNGTDEQYEGATVIEPIKGYYDTPIATLDFSSLYPSIMQAHNLCYTTLLDSNTAELLKLKQDVDYSVTPNGDYFVKPHVRKGLLPIILADLLNARKKAKADLKKETDPFKKAVLDGRQLALKVSANSVYGFTGATNGRLPCLAISSSVTSYGRQMIEKTKDVVEKRYRIENGYSHDAVVIYGDTDSVMVKFGVKTLPEAMKLGEEAANYVSDQFPNPIKLEFEKVYFPYLLISKKRYAGLFWTRTDTYDKMDSKGIETVRRDNCPLVSYVIDTALRKMLIDQDVEGAQLFTKKVISDLLQNKIDMSQLVITKALSKTDYAAKMAHVELAERMRKRDAGSAPAIGDRVAYVIIKGAQGDQFYMRSEDPIYVLENNIPIDAKYYLENQLSKPLLRIFEPILGEKASSLLHGDHTRTISMAAPSVGGIMKFAVKVETCLGCKAPIKKGKTALCENCLNRSAELYQRQVAQVNDLEVRFARLWTQCQRCQGSMHQDVICTSRDCPIFYMRIAEHKKLQQSVDLLKRFDEMSW
notes: DNA polymerase delta catalytic subunit Pol3, S. pombe; prey plasmid named pACT-Pol3 in the results and pGAD2F-Pol3 in the methods; also called Gal4-Pol3; pACT-Pol3; source: yeast two-hybrid fusion, in S. cerevisiae CTY10-5d
[1]
  two-hybrid beta-galactosidase activity, % of wild-type Cdc1: 65%
[2]
  two-hybrid beta-galactosidase activity, % of wild-type Cdc1: < 1%
[3]
  two-hybrid beta-galactosidase activity, % of wild-type Cdc1: 4%
[4]
  two-hybrid beta-galactosidase activity, % of wild-type Cdc1: 9%
